Source: patent US20210371526A1

Biological target: CD19 on tumor cells (Raji, Raji-Luc, NALM6, Reh) (human) (UniProt P15391)
Assay: cell-based or functional assay

CD19 on tumor cells (Raji, Raji-Luc, NALM6, Reh) (human), sequence (P15391 20-556): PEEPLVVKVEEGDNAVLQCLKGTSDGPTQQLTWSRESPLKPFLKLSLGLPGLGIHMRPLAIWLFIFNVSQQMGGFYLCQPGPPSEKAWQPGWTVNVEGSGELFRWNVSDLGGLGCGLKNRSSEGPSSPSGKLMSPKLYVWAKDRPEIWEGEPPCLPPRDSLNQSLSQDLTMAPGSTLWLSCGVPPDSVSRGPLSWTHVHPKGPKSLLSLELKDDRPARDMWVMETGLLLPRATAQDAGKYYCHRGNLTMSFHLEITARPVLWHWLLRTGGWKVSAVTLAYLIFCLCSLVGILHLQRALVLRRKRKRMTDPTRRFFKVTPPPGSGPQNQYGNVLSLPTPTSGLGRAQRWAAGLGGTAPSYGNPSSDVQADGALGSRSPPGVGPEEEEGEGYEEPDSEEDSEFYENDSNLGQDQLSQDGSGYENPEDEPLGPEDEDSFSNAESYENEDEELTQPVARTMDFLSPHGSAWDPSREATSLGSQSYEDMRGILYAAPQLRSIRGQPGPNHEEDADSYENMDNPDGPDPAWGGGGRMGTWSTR

Substance: Blincyto (bispecific antibody)
- EC50 of CIK-mediated killing of NALM6 cells: 0.0773 nM
- EC50 of CIK-mediated killing of Raji-LUC cells: 0.000595 nM
- EC50 of CIK-mediated killing of Raji-LUC cells, second row: 0.00565 nM
- EC50 of CIK-mediated killing of Reh cells: 0.0119 nM
- EC50 of PBMC-mediated killing of Raji-LUC cells: 0.00545 nM
- EC50 of PBMC-mediated killing of Raji-LUC cells, second row: 0.0212 nM
- EC50 of PBMC-mediated killing of Raji-LUC cells, third row: 0.0226 nM
- EC50 of activation of Jurkat T cells with NFAT RE reporter in the presence of Raji target cells: 2.71 nM
